Sequences and labels used below:
B1: POU domain, class 3, transcription factor 1, residues 247 to 324; numbered along this chain, Q03052 (parent)
chain: EDAPSSDDLEQFAKQFKQRRIKLGFTQADVGLALGTLYGNVFSQTTICRFEALQLSFKNMCKLKPLLNKWLEETDSSS

± gives the uncertainty stated by the source.

The record followed here is the Human Domainome abundance scans (Beltran et al. 2025).

The variants in this series derive from B1. Nature of the series: abundance fitness (aPCA) (normalised: wild type 0, dead -1); higher = more abundant; growth selection in yeast, the domain comes from the species named. Particulars: Homo sapiens.
In the case of EDAPSSDDFEQFAKQFKQRRIKLGFTQADVGLALGTLYGNVFSQTTICRFEALQLSFKNMCKLKPLLNKWLEETDSSS [L9F], the abundance fitness was -0.098 ± 0.13.
Take EDAPSSDDSEQFAKQFKQRRIKLGFTQADVGLALGTLYGNVFSQTTICRFEALQLSFKNMCKLKPLLNKWLEETDSSS [L9S]: the abundance fitness is -0.833 ± 0.16.
The result for EDAPSSDDVEQFAKQFKQRRIKLGFTQADVGLALGTLYGNVFSQTTICRFEALQLSFKNMCKLKPLLNKWLEETDSSS [L9V] reads -0.095 ± 0.058; that for EDAPSSDDWEQFAKQFKQRRIKLGFTQADVGLALGTLYGNVFSQTTICRFEALQLSFKNMCKLKPLLNKWLEETDSSS [L9W], -0.365 ± 0.091.
Regarding EDAPSSDDQEQFAKQFKQRRIKLGFTQADVGLALGTLYGNVFSQTTICRFEALQLSFKNMCKLKPLLNKWLEETDSSS [L9Q], the abundance fitness was -0.355 ± 0.1.
On to EDAPSSDDIEQFAKQFKQRRIKLGFTQADVGLALGTLYGNVFSQTTICRFEALQLSFKNMCKLKPLLNKWLEETDSSS [L9I], for which the abundance fitness was -0.398 ± 0.21.
On to EDAPSSDDHEQFAKQFKQRRIKLGFTQADVGLALGTLYGNVFSQTTICRFEALQLSFKNMCKLKPLLNKWLEETDSSS [L9H], for which the abundance fitness is -0.645 ± 0.31.
The result for EDAPSSDDPEQFAKQFKQRRIKLGFTQADVGLALGTLYGNVFSQTTICRFEALQLSFKNMCKLKPLLNKWLEETDSSS [L9P] reads -0.68 ± 0.24.
For EDAPSSDDDEQFAKQFKQRRIKLGFTQADVGLALGTLYGNVFSQTTICRFEALQLSFKNMCKLKPLLNKWLEETDSSS [L9D], the abundance fitness is -0.678 ± 0.29.
The result for EDAPSSDDCEQFAKQFKQRRIKLGFTQADVGLALGTLYGNVFSQTTICRFEALQLSFKNMCKLKPLLNKWLEETDSSS [L9C] reads -0.606 ± 0.24; that for EDAPSSDDAEQFAKQFKQRRIKLGFTQADVGLALGTLYGNVFSQTTICRFEALQLSFKNMCKLKPLLNKWLEETDSSS [L9A], -0.532 ± 0.11; that for EDAPSSDDEEQFAKQFKQRRIKLGFTQADVGLALGTLYGNVFSQTTICRFEALQLSFKNMCKLKPLLNKWLEETDSSS [L9E], -0.54 ± 0.18.
Consider EDAPSSDDMEQFAKQFKQRRIKLGFTQADVGLALGTLYGNVFSQTTICRFEALQLSFKNMCKLKPLLNKWLEETDSSS [L9M], for which the abundance fitness is -0.084 ± 0.11.
EDAPSSDDGEQFAKQFKQRRIKLGFTQADVGLALGTLYGNVFSQTTICRFEALQLSFKNMCKLKPLLNKWLEETDSSS [L9G]: the abundance fitness was -0.651 ± 0.11.
For the variant EDAPSSDDREQFAKQFKQRRIKLGFTQADVGLALGTLYGNVFSQTTICRFEALQLSFKNMCKLKPLLNKWLEETDSSS [L9R], the abundance fitness is -0.678 ± 0.1.
With EDAPSSDDTEQFAKQFKQRRIKLGFTQADVGLALGTLYGNVFSQTTICRFEALQLSFKNMCKLKPLLNKWLEETDSSS [L9T], the abundance fitness is -0.268 ± 0.11.
Take EDAPSSDDKEQFAKQFKQRRIKLGFTQADVGLALGTLYGNVFSQTTICRFEALQLSFKNMCKLKPLLNKWLEETDSSS [L9K]: the abundance fitness is -0.399 ± 0.21.
For the variant EDAPSWDDLEQFAKQFKQRRIKLGFTQADVGLALGTLYGNVFSQTTICRFEALQLSFKNMCKLKPLLNKWLEETDSSS [S6W], the abundance fitness is 0.405 ± 0.063.
Take EDAPSQDDLEQFAKQFKQRRIKLGFTQADVGLALGTLYGNVFSQTTICRFEALQLSFKNMCKLKPLLNKWLEETDSSS [S6Q]: the abundance fitness worked out at 0.436 ± 0.087.
The result for EDAPSPDDLEQFAKQFKQRRIKLGFTQADVGLALGTLYGNVFSQTTICRFEALQLSFKNMCKLKPLLNKWLEETDSSS [S6P] reads 0.162 ± 0.11; that for EDAPSRDDLEQFAKQFKQRRIKLGFTQADVGLALGTLYGNVFSQTTICRFEALQLSFKNMCKLKPLLNKWLEETDSSS [S6R], 0.365 ± 0.047; that for EDAPSNDDLEQFAKQFKQRRIKLGFTQADVGLALGTLYGNVFSQTTICRFEALQLSFKNMCKLKPLLNKWLEETDSSS [S6N], 0.178 ± 0.11.
The result for EDAPSYDDLEQFAKQFKQRRIKLGFTQADVGLALGTLYGNVFSQTTICRFEALQLSFKNMCKLKPLLNKWLEETDSSS [S6Y] reads 0.043 ± 0.45; that for EDAPSTDDLEQFAKQFKQRRIKLGFTQADVGLALGTLYGNVFSQTTICRFEALQLSFKNMCKLKPLLNKWLEETDSSS [S6T], 0.38 ± 0.084; that for EDAPSSDLLEQFAKQFKQRRIKLGFTQADVGLALGTLYGNVFSQTTICRFEALQLSFKNMCKLKPLLNKWLEETDSSS [D8L], -0.491 ± 0.15.
Next, EDAPSSDRLEQFAKQFKQRRIKLGFTQADVGLALGTLYGNVFSQTTICRFEALQLSFKNMCKLKPLLNKWLEETDSSS [D8R]: -0.179 ± 0.07.
As to EDAPSSDCLEQFAKQFKQRRIKLGFTQADVGLALGTLYGNVFSQTTICRFEALQLSFKNMCKLKPLLNKWLEETDSSS [D8C], the abundance fitness is -0.358 ± 0.17.
The result for EDAPSSDQLEQFAKQFKQRRIKLGFTQADVGLALGTLYGNVFSQTTICRFEALQLSFKNMCKLKPLLNKWLEETDSSS [D8Q] reads -0.25 ± 0.12.
The result for EDAPSSDELEQFAKQFKQRRIKLGFTQADVGLALGTLYGNVFSQTTICRFEALQLSFKNMCKLKPLLNKWLEETDSSS [D8E] reads -0.076 ± 0.085; that for EDAPSSDMLEQFAKQFKQRRIKLGFTQADVGLALGTLYGNVFSQTTICRFEALQLSFKNMCKLKPLLNKWLEETDSSS [D8M], 0.014 ± 0.14; that for EDAPSSDALEQFAKQFKQRRIKLGFTQADVGLALGTLYGNVFSQTTICRFEALQLSFKNMCKLKPLLNKWLEETDSSS [D8A], -0.183 ± 0.079.
Next, EDAPSSDHLEQFAKQFKQRRIKLGFTQADVGLALGTLYGNVFSQTTICRFEALQLSFKNMCKLKPLLNKWLEETDSSS [D8H]: -0.276 ± 0.41; EDAPSSDFLEQFAKQFKQRRIKLGFTQADVGLALGTLYGNVFSQTTICRFEALQLSFKNMCKLKPLLNKWLEETDSSS [D8F]: -0.481 ± 0.41; EDAPSSDGLEQFAKQFKQRRIKLGFTQADVGLALGTLYGNVFSQTTICRFEALQLSFKNMCKLKPLLNKWLEETDSSS [D8G]: -0.095 ± 0.061.
EDAPSSDILEQFAKQFKQRRIKLGFTQADVGLALGTLYGNVFSQTTICRFEALQLSFKNMCKLKPLLNKWLEETDSSS [D8I]: the abundance fitness is -0.529 ± 0.28.
